# Results reported in the supplement of paper PMC11246515.
# ± gives the standard deviation of the averaged measurements.
# Assay: total protein half-life in vivo (active degradation + dilution); higher = more stable protein
# [1] = E. coli NCM3722 delta-clpP delta-lon delta-hslV, growth: N-lim chemostat, doubling time 6 h
# [2] = E. coli NCM3722 delta-clpP, growth: N-lim chemostat, doubling time 6 h
# [3] = E. coli NCM3722 delta-hslV, growth: N-lim chemostat, doubling time 6 h
# [4] = E. coli NCM3722 delta-lon, growth: N-lim chemostat, doubling time 6 h
# [5] = wild type E. coli NCM3722, growth: C-lim chemostat, doubling time 3 h
# [6] = wild type E. coli NCM3722, growth: C-lim chemostat, doubling time 6 h
# [7] = wild type E. coli NCM3722, growth: C-lim chemostat, doubling time 12 h
# [8] = wild type E. coli NCM3722, growth: N-lim chemostat, doubling time 6 h
# [9] = wild type E. coli NCM3722, growth: P-lim chemostat, doubling time 6 h
# [10] = wild type E. coli NCM3722, growth: P-lim chemostat, doubling time 12 h
# [11] = E. coli NCM3722 delta-smpB, growth: N-lim chemostat, doubling time 6 h
# [12] = wild type E. coli NCM3722, growth: N-lim chemostat, doubling time 12 h
Sequence,total protein half-life in vivo [1] [h],total protein half-life in vivo [2] [h],total protein half-life in vivo [3] [h],total protein half-life in vivo [4] [h],total protein half-life in vivo [5] [h],total protein half-life in vivo [6] [h],total protein half-life in vivo [7] [h],total protein half-life in vivo [8] [h],total protein half-life in vivo [9] [h],total protein half-life in vivo [10] [h],total protein half-life in vivo [11] [h],total protein half-life in vivo [12] [h]
MMSAPKITFIGAGSTIFVKNILGDVFHREALKTAHIALMDIDPTRLEESHIVVRKLMDSAGASGKITCHTQQKEALEDADFVVVAFQIGGYEPCTVTDFEVCKRHGLEQTIADTLGPGGIMRALRTIPHLWQICEDMTEVCPDATMLNYVNPMAMNTWAMYARYPHIKQVGLCHSVQGTAEELARDLNIDPATLRYRCAGINHMAFYLELERKTADGSYVNLYPELLAAYEAGQAPKPNIHGNTRCQNIVRYEMFKKLGYFVTESSEHFAEYTPWFIKPGREDLIERYKVPLDEYPKRCVEQLANWHKELEEYKKASRIDIKPSREYASTIMNAIWTGEPSVIYGNVRNDGLIDNLPQGCCVEVACLVDANGIQPTKVGTLPSHLAALMQTNINVQTLLTEAILTENRDRVYHAAMMDPHTAAVLGIDEIYALVDDLIAAHGDWLPGWLHR,4.14,2.52 ± 0.52,1.5,2.73,3.25 ± 0.39,4.25 ± 0.26,8.03 ± 1.2,1.97,4.92 ± 0.48,9.8 ± 0.35,–,–
MAKEISSELLNTILTRVGGPGNIASCGNCMTRLRLGVHDSSLVDPNIKTLEGVKGVILTSDQVQVVFGPGKAHRAAKAMSELLGEAPVQDAAEIAAQNKRQLKAKQTSGVQQFLAKFATIFTPLIPGFIAAGLLLGIATLIATVMHVPADAQGTLPDALNFMKVFSKGLFTFLVILVGYNAAQAFGGTGVNGAIIAALFLLGYNPAATTGYYAGFHDFFGLPIDPRGNIIGVLIAAWACARIEGMVRRFMPDDLDMLLTSLITLLITATLAYLIIMPLGGWLFEGMSWLFMHLNSNPFGCAVLAGLFLIAVVFGVHQGFIPVYLALMDSQGFNSLFPILSMAGAGQVGAALALYWRAQPHSALRSQVRGAIIPGLLGVGEPLIYGVTLPRMKPFVTACLGGAAGGLFIGLIAWWGLPMGLNSAFGPSGLVALPLMTSAQGILPAMAVYAGGILVAWVCGFIFTTLFGCRNVNLD,3.66,3.67,–,–,3.48,5.06,–,5.006 ± 0.029,–,–,6.02,–
MQYKDENGVNEPSRRRLLKVIGALALAGSCPVAHAQKTQSAPGTLSPDARNEKQPFYGEHQAGILTPQQAAMMLVAFDVLASDKADLERLFRLLTQRFAFLTQGGAAPETPNPRLPPLDSGILGGYIAPDNLTITLSVGHSLFDERFGLAPQMPKKLQKMTRFPNDSLDAALCHGDVLLQICANTQDTVIHALRDIIKHTPDLLSVRWKREGFISDHAARSKGKETPINLLGFKDGTANPDSQNDKLMQKVVWVTADQQEPAWTIGGSYQAVRLIQFRVEFWDRTPLKEQQTIFGRDKQTGAPLGMQHEHDVPDYASDPEGKVIALDSHIRLANPRTAESESSLMLRRGYSYSLGVTNSGQLDMGLLFVCYQHDLEKGFLTVQKRLNGEALEEYVKPIGGGYFFALPGVKDANDYFGSALLRV,–,5.58,–,–,2.17 ± 0.16,4.4,7.71,–,–,–,5.85,–
MKTGMFTCGHQRLPIEHAFRDASELGYDGIEIWGGRPHAFAPDLKAGGIKQIKALAQTYQMPIIGYTPETNGYPYNMMLGDEHMRRESLDMIKLAMDMAKEMNAGYTLISAAHAGYLTPPNVIWGRLAENLSELCEYAENIGMDLILEPLTPYESNVVCNANDVLHALALVPSPRLFSMVDICAPYVQAEPVMSYFDKLGDKLRHLHIVDSDGASDTHYIPGEGKMPLRELMRDIIERGYEGYCTVELVTMYMNEPRLYARQALERFRALLPEDER,7.09,–,–,–,> 4,–,6.86,–,–,–,–,–
MNRRRKLLIPLLFCGAMLTACDDKSAENAAAMTPEVGVVTLSPGSVNVLSELPGRTVPYEVAEIRPQVGGIIIKRNFIEGDKVNQGDSLYQIDPAPLQAELNSAKGSLAKALSTASNARITFNRQASLLKTNYVSRQDYDTARTQLNEAEANVTVAKAAVEQATINLQYANVTSPITGVSGKSSVTVGALVTANQADSLVTVQRLDPIYVDLTQSVQDFLRMKEEVASGQIKQVQGSTPVQLNLENGKRYSQTGTLKFSDPTVDETTGSVTLRAIFPNPNGDLLPGMYVTALVDEGSRQNVLLVPQEGVTHNAQGKATALILDKDDVVQLREIEASKAIGDQWVVTSGLQAGDRVIVSGLQRIRPGIKARAISSSQENASTESKQ,5.76 ± 0.3,6.22 ± 0.68,6.15 ± 0.1,6.24 ± 0.35,2.98,6.09,> 16,5.92 ± 0.32,3.99 ± 0.38,8.12 ± 0.25,5.05 ± 0.34,10.6 ± 0.88
MDNRGEFLNNVAQALGRPLRLEPQAEDAPLNNYANERLTQLNQQQRCDAFIQFASDVMLTRCELTSEAKAAEAAIRLCKELGDQSVVISGDTRLEELGISERLQQECNAVVWDPAKGAENISQAEQAKVGVVYAEYGLTESGGVVLFSAAERGRSLSLLPEYSLFILRKSTILPRVAQLAEKLHQKAQAGERMPSCINIISGPSSTADIELIKVVGVHGPVKAVYLIIEDC,4.84 ± 0.23,1.46,1.64,2.67,2.33 ± 0.14,3.75 ± 0.5,5.23 ± 0.45,–,2.13,–,1.78 ± 0.043,2.49
MKVLVTGATSGLGRNAVEFLCQKGISVRATGRNEAMGKLLEKMGAEFVPADLTELVSSQAKVMLAGIDTLWHCSSFTSPWGTQQAFDLANVRATRRLGEWAVAWGVRNFIHISSPSLYFDYHHHRDIKEDFRPHRFANEFARSKAASEEVINMLSQANPQTRFTILRPQSLFGPHDKVFIPRLAHMMHHYGSILLPHGGSALVDMTYYENAVHAMWLASQEACDKLPSGRVYNITNGEHRTLRSIVQKLIDELNIDCRIRSVPYPMLDMIARSMERLGRKSAKEPPLTHYGVSKLNFDFTLDITRAQEELGYQPVITLDEGIEKTAAWLRDHGKLPR,6.23 ± 0.075,–,6.37 ± 0.24,5.88 ± 0.54,2.62 ± 0.47,–,9.95 ± 0.97,6.14 ± 0.16,5.6 ± 0.61,9.9 ± 0.57,5.48 ± 0.29,12.6 ± 0.48
MKSLSYKRIYKSQEYLATLGTIEYRSLFGSYSLTVDDTVFAMVSDGELYLRACEQSAQYCVKHPPVWLTYKKCGRSVTLNYYRVDESLWRNQLKLVRLSKYSLDAALKEKSTRNTRERLKDLPNMSFHLEAILGEVGIKDVRALRILGAKMCWLRLRQQNSLVTEKILFMLEGAIIGIHEAALPVARRQELAEWADSLTPKQEFPAELE,5.96,–,–,–,2.28,4.19,9.22,–,3.79 ± 0.53,–,–,–
